Assay: yeast display, Sf9 membrane polyspecificity reagent, FACS + sequencing; frameworks hold sequencing errors
Summary of the method: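 Genes from sorted yeast were amplified by colony PCR, read by MiSeq 2 × 250 sequencing and filtered on CDR length. These cells carried a synthetic nanobody library in Saccharomyces cerevisiae BJ5465 and were sorted by FACS into low and high (top ~1%) gates on anti-HA and streptavidin fluorescence. Polyreactivity is labelled according to the gate of origin.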

Sequence	polyreactivity (PSR sort gate)
QVQLVESGGGLVQAGGSLRLSCAASGRIFYYYTMGWYRPAPGKERELVARITGLTGRTYYADCVKGRFTISRDNGKNTVYLQMNSLKPEDTAVYYCNARYFRHYDYWGQGTQGTVSS	high polyreactivity
QVQLVESGGGLVQAGGSLRLSCAASGRIFYYYTMGWYRQAPGKEREVVAAITKGDDDTSYADSVKGRFTISRDNAKNTVYVQMNSLKPEDTAVYYCAVEIVLVPFVVGYDYWGQGTQVTVSS	low polyreactivity
QVQLVESGGGLVQAGGSLRLSCAASGRIGNTMGWYRQAPGKERELVATISSSGGSTYYADSVKGRFTISRDNAKNTVYLQMNSLKPEDTAVYYCAVEYYGYSTSGRYLSPYNYWGQGTQVTVSS	low polyreactivity
QVQLVESGGGLVQAGGSLRLSCAASGRIGPNVMGWYRQPPGKERELVARITWRGGSTYYADSVKGRFTISRDNAKNTVYLQMNSLKPEDTAVYYCNARGHGGWGTSMYYWGQGTQVTVSS	high polyreactivity
QVQLVESGGGLVQAGGSLRLSCAASGRIIAIYAMGWYRPAPGKERELVAAISWNSGRTNYADSVKGRFTISRDNAKNTVYLQMNSLKPEDTAVYYCAADGDRYLVSTSYPEYDYWGQGTQVTVTS	low polyreactivity
QVQLVESGGGLVQAGGSLRLSCAASGRIIDRNDMGWYRQAPGKERELVAAISSSGSTNYADSVKGRFTISRDNAKNTVYLQMNSLKPEHTAGYYCADRWRSVLASGTRPVSFDYWGQGTQVTVSS	low polyreactivity
QVQLVESGGGLVQAGGSLRLSCAASGRIIEHNAMGWYRQAPGKERELVAAINYSGGSTYYADSVKGRFTISRDNAKNTVYLQMNSLKPEDTAVYYCATRTGHWGQGTQVTVSS	low polyreactivity
QVQLVESGGGLVQAGGSLRLSCAASGRIIFRNAMGWYRQAPGKERELVAAISTSGGSTYYADSVKGRFTISRDNAKNTVYLQMNSLKPEDTAVYYWSKQFNSSPRRYYWGQGTQVTVSS	high polyreactivity
QVQLVESGGGLVQAGGSLRLSCAASGRIIGFNAMGWYRQAPGKEMELVASIRTTGGSTRYADSVKGRFTISRDNAKNTVYLQMNSLKREDTAVYYCAARWGKTLWQYNYWGQGTQVTVSS	high polyreactivity
QVQLVESGGGLVQAGGSLRLSCAASGRIIGKNVMGWSRQAPGKDRELVAAISNSGGSTYYADSVKGRFTISRDNAKNTVYLQMNSLKPEDTAVYYCAVDTSYYDYWGQGTQVTVSS	high polyreactivity
QVQLVESGGGLVQAGGSLRLSCAASGRIIGLYTMGWYRQAPGKERELVAAINIRGTRTYYADSVKGRFTISRDNAKNTVYLQMNSLKPEDTSVYYCARSPVVVGSFLSYDYWGQGTQVTVSS	high polyreactivity
QVQLVESGGGLVQAGGSLRLSCAASGRIIGLYTMGWYRQAPGKERELVAAINIRGTRTYYADSVKGRFTISRDNAKNTVYLQMTSLKPEDTAVYYCNAYPKSWELDYWGLGTQVTVSS	high polyreactivity
QVQLVESGGGLVQAGGSLRLSCAASGRIIGYNAMGWYRQAPGKERELVATITYGGGRTYYADSVKGRFTISRDNAKNTVYLQMNSLKPEDTAVYYCAAKHRFPIPGFGYWGQGTQVTVSS	low polyreactivity
QVQLVESGGGLVQAGGSLRLSCAASGRIIKYYTMGWYRQAPGKERELVASITGTGGSTYYADSVKGRFTISRDNAKNTVYLQMNSLKPEDTAVYYCAARLSVLGGYRGRNAWRFDHWGQGTQVTVSS	high polyreactivity
QVQLVESGGGLVQAGGSLRLSCAASGRIILGYAMGWYRQAPGKERELVARITWSGGSTYYADSVKGRFTISRDNAKNTVSLQMNSLKPEDNAVYYCAKRTYYSYPDGYWGQGTQVTVSS	high polyreactivity
QVQLVESGGGLVQAGGSLRLSCAASGRIIRSYAMGRYRQAPRKERELVDAITTGGRTYYADSVKGRFTISRDNAKNTVYLQMNSLKPEDTAVYYCNSALVYRGTDTNDYWGQGTQVTVSS	high polyreactivity

Sequence	polyreactivity (PSR sort gate)
QVQLVESGGGLVQAGGSLRLSCAASGRIIRWYAMAWYRQAPGKERELVAAITWRGGSTDYADSVKGRFTISRDNAKNTVYLQMNSLKPEDTAVYYCNAAGFKTSWYYYGDWYDYWGQGTQVTVSS	high polyreactivity
QVQLVESGGGLVQAGGSLRLSCAASGRIISSYAMGWYRQAPGKERELVAAITSSGGSTYYADSVKGRFTISRDNAKNTVYLQMNSLKPEDTAVYYCAARVFARYYTAYGVETRREEDYWGQGTQVTVSS	low polyreactivity
QVQLVESGGGLVQAGGSLRLSCAASGRIITAYYAMGWYRQAPGKERELVASISSSGTSTYADSVKGRFTISRDNAKNTVYLQMNSLKPEDTAVYYCATRKLRTRRYDYGYWGQGTQVTVSS	low polyreactivity
QVQLVESGGGLVQAGGSLRLSCAASGRIITRYAMGWYRQAPGKERELVAAISSGGSTYYADSVKGRFTISRDNAKNTVYLQMNSLKPEDTAVYYCARGWSGAYAGGYWGQGTQVTVSS	high polyreactivity
QVQLVESGGGLVQAGGSLRLSCAASGRIITYNAMGWYRQAPGKERELVAAISTTGGRTYYADSVKGRFTISRDNAKNTVYLQMNSLKPEDTAVYYCNAVLKRPLAYHVTYDYWGQGTQVTVSA	high polyreactivity
QVQLVESGGGLVQAGGSLRLSCAASGRIIVLYAMGWYIQAPGKERELVASIRSGGSTNYADSVKGRFTISRDNAKNTVYLQMNSLKPEDTAVYYCAARIRSVVPFDMDYWGQGTQVTVSS	low polyreactivity
QVQLVESGGGLVQAGGSLRLSCAASGRIIVRNAMGWYRQAPGKERELVAAISGSGSRTYYADSVKGRFTISRDNAKNTVYLQMNSLNPEDTAVYYCAASGYWPFRSGFGYWGQGTQVTVSS	high polyreactivity
QVQLVESGGGLVQAGGSLRLSCAASGRIIYGNALGWYRQAPGKERELVAAITSGGSTNYADSVKGRFPISRDNAKNTVYLQMNSLIPEDTAVYYCNAVVYSAYRYEYWGQGTQVTVSS	low polyreactivity
QVQLVESGGGLVQAGGSLRLSCAASGRIIYIYAMGWYIQAPGKERELVAAITASSGSTNYADSVKGRFTISRDNAKNTVYLQMNSLKPEDTAVYYCAAAPSRTLLRQSKYYYWGQGTQVTVSS	low polyreactivity
QVQLVESGGGLVQAGGSLRLSCAASGRIIYKNAMGWYRQAPGKERELVAAITSSGGSTYYADSVKGRFTISRDNAKNTVYLQMYSLKPEDTAVYYCATDWPHWRKVYWFDYWGQGTQVTVSS	low polyreactivity
QVQLVESGGGLVQAGGSLRLSCAASGRIIYNYAMGWYRQAPGKERELVAAISRGGSTNYADSVKGRFTISRDNAKNTVYLQMNSLKPEDTAVYYCAAWTYVWTRGGSPVTVQRYNYWGQGTQVTVSS	high polyreactivity
QVQLVESGGGLVQAGGSLRLSCAASGRIIYSYAMGWYRQAPGKERELVATITASGGRTYYADSVKGRFTISRDNAKNTVYLQMHSLKQEDSAVYYCNARYYGSFRRRYDYWGQGTQVTVSS	high polyreactivity
QVQLVESGGGLVQAGGSLRLSCAASGRIIYTYAMGWYRQAPGKERELVAAISWSGGSTYYADSVKGRFTISRDNAKNTVYLQMNSLKPEDTAVYFCNAAYYGYENLSKRGYWGQGTQVTVSS	high polyreactivity
QVQLVESGGGLVQAGGSLRLSCAASGRILAAYTMGWYRQAPGKERELVAAITRGGSRTNYADSVKGRFTISRDNAKNTVYLQMNSLKPEDTAVYYCAATWSAYRRWGYDYWGQGTQVTVSS	high polyreactivity
QVQLVESGGGLVQAGGSLRLSCAASGRILASYAMGWYRQAPGKECELVAAIRYRGSTSYADSVKGRFTISRDNAKNTVYLQMNSLKPEDTAVYYCAAKWHVRGRGARYRYDYDYWGQGTQVTVSS	low polyreactivity
